In the Immune Epitope Database (IEDB) one finds Kd and IC50 data, which are given here for eleven sequences.

Experiment [1] addresses HLA-C*08:02. Briefly: IEDB peptide-MHC binding, purified MHC/direct/fluorescence; filed as Kd, often an IC50 or EC50 that approximates it; ≥ and ≤ were set here for values at or beyond the usual limits of such assays.
In experiment [2] the target is HLA-A*01:01. Nature of the experiment: IEDB peptide-MHC binding, purified MHC/competitive/fluorescence; filed as Kd, often an IC50 or EC50 that approximates it; ≥ and ≤ were set here for values at or beyond the usual limits of such assays. As to conditions: source organism: Yersinia pestis Antiqua.
Experiment [3] concerns the target HLA-A*03:01. The experiment is described as above. As to conditions: source organism: Yersinia pestis Antiqua.
Experiment [4] concerns the target HLA-B*35:01. Described as above. As to conditions: source organism: Yersinia pestis Antiqua.
The target of experiment [5] is HLA-A*02:01. Briefly: IEDB peptide-MHC binding, purified MHC/competitive/radioactivity; ≥ and ≤ were set here for values at or beyond the usual limits of such assays.
Experiment [6] addresses HLA-A*69:01. Briefly: IEDB peptide-MHC binding, purified MHC/direct/fluorescence; filed as Kd, often an IC50 or EC50 that approximates it; ≥ and ≤ were set here for values at or beyond the usual limits of such assays.
For experiment [7], the target named is HLA-C*03:03. The description is as above. Conditions: source organism: Listeria monocytogenes EGD-e.
The target in experiment [8] is HLA-C*05:01. The experiment is described as above.
Experiment [9] concerns the target HLA-A*01:01. The description is as above.
Experiment [10] concerns the target HLA-A*03:01. The description is as above.
Experiment [11] deals with HLA-A*11:01. Described as above. As to conditions: source organism: Salmonella enterica subsp. enterica serovar Typhimurium.
Experiment [12] deals with HLA-A*24:02. The description is as above.
Experiment [13] concerns the target HLA-A*26:01. Described as above.
The target in experiment [14] is HLA-A*31:01. Described as above.
The target in experiment [15] is HLA-B*07:02. Described as above.
Experiment [16] has as its target HLA-B*08:01. Described as above.
Experiment [17] addresses HLA-B*08:02. The experiment is described as above. Conditions: source organism: Salmonella enterica subsp. enterica serovar Typhimurium str. LT2.
Experiment [18] has as its target HLA-B*15:01. Described as above.
For experiment [19], the target named is HLA-B*27:05. The description is as above.
The target in experiment [20] is HLA-B*40:01. The experiment is described as above.
The target of experiment [21] is HLA-B*44:02. The description is as above.
Experiment [22] deals with HLA-B*58:01. The experiment is described as above.
In experiment [23] the target is HLA-A*02:01. Described as above.
Experiment [24] addresses HLA-A*23:01. The description is as above. Conditions: source organism: Vibrio vulnificus.
In experiment [25] the target is HLA-A*24:03. The experiment is described as above.
The target of experiment [26] is HLA-A*26:02. The description is as above. As to conditions: source organism: Vibrio vulnificus CMCP6.
The target of experiment [27] is HLA-A*68:02. The description is as above. As to conditions: source organism: Vibrio vulnificus.
Experiment [28] deals with HLA-B*18:01. The description is as above. Conditions: source organism: Vibrio vulnificus.
Experiment [29] addresses HLA-B*39:01. Described as above. Conditions: source organism: Vibrio vulnificus CMCP6.
Experiment [30] addresses HLA-B*57:01. Described as above.
For experiment [31], the target named is HLA-A*11:01. Briefly: IEDB peptide-MHC binding, purified MHC/competitive/fluorescence; filed as Kd, often an IC50 or EC50 that approximates it; ≥ and ≤ were set here for values at or beyond the usual limits of such assays. Conditions: source organism: Vibrio vulnificus YJ016.
The target of experiment [32] is HLA-B*15:17. The description is as above. As to conditions: source organism: Vibrio vulnificus YJ016.
Experiment [33] concerns the target HLA-C*12:03. Briefly: IEDB peptide-MHC binding, purified MHC/direct/fluorescence; filed as Kd, often an IC50 or EC50 that approximates it; ≥ and ≤ were set here for values at or beyond the usual limits of such assays. As to conditions: source organism: Toxoplasma gondii ME49.
Experiment [34] has as its target HLA-A*30:01. Described as above. Conditions: source organism: Salmonella enterica subsp. enterica serovar Typhimurium.
In experiment [35] the target is HLA-B*73:01. The experiment is described as above. Conditions: source organism: Salmonella enterica subsp. enterica serovar Typhimurium str. LT2.
Setting [36] is: source organism: Salmonella enterica subsp. enterica serovar Typhimurium.
[37] abbreviates: source organism: Salmonella enterica subsp. enterica serovar Typhimurium str. LT2.
Where [38] appears, read: source organism: Vibrio vulnificus.
The mark [39] stands for this setting: source organism: Toxoplasma gondii.
Setting [40] is: source organism: Salmonella enterica.

Consider FVADSTPLY, for which the Kd in experiment [1] (source organism: Yersinia pestis Antiqua) was not below 20 µM; in experiment [2], 0.0018 µM; in experiment [3] it was not below 20 µM; in experiment [4], not above 0.0001 µM.

Consider RTFSPTYGL, for which the IC50 in [5] (source organism: Homo sapiens) is 0.408 µM.

As for FLPDKAIDL, the values for the Kd in experiment [6] (source organism: Bacillus anthracis), in [7] and in experiment [1] (source organism: Listeria monocytogenes EGD-e) were 17 µM, 0.02 µM and 0.047 µM, respectively.

Sequence SLDQSVVEL displayed a Kd in [8] (source organism: Chlamydia trachomatis) of 0.051 µM.

On to TVLEYLVSFGV, for which the half-inhibitory concentration (IC50) in experiment [5] (source organism: Hepatitis B virus) came out at 0.294 µM.

On to YSDIFNNVL, for which the Kd is 0.075 µM in experiment [9] (setting [36]); not below 20 µM in [10] (setting [36]); not below 20 µM in [11]; not below 20 µM in [12] (setting [36]); not below 20 µM in experiment [13] (setting [37]); not below 20 µM in experiment [14] (setting [36]). In addition, the dissociation constant Kd in experiment [15] (setting [36]) is not below 20 µM; in experiment [16] (setting [37]) it was not below 20 µM; in experiment [17] it was not below 20 µM; in experiment [18] (setting [36]), not below 20 µM; in experiment [19] (setting [36]), not below 20 µM; in [20] (setting [36]) it was 0.396 µM. Moreover, the Kd was not below 20 µM in [21] (setting [36]), not below 20 µM in [22] (setting [36]) and 0.005 µM in experiment [8] (setting [37]).

In the case of PHPVVVRTL, the dissociation constant (Kd) in [9] (setting [38]) is not below 20 µM; in [23] (setting [38]) it was not below 20 µM; in experiment [10] (setting [38]), not below 20 µM; in [24] it was not below 20 µM; in experiment [12] (setting [38]) it was 18 µM; in [25] (setting [38]), not below 20 µM. Besides, the Kd in experiment [13] (source organism: Vibrio vulnificus CMCP6), in [26], in experiment [14] (setting [38]), in experiment [27], in [6] (setting [38]) and in experiment [15] (setting [38]) was not below 20 µM each time. In addition, the Kd in experiment [18] (setting [38]) was 0.775 µM; in experiment [28], not below 20 µM; in experiment [19] (setting [38]), not below 20 µM; in experiment [29] it was not below 20 µM; in experiment [30] (setting [38]), not below 20 µM; in experiment [22] (setting [38]) it was not below 20 µM. Moreover, the Kd in experiment [31] and in experiment [32] was not below 20 µM each time.

RATSHVPEF: the Kd is not below 20 µM in [30] (setting [39]), not below 20 µM in [22] (setting [39]), not below 20 µM in experiment [8] (source organism: Toxoplasma gondii ME49) and 0.148 µM in [33].

With DLNTSAGFPYV, the IC50 in experiment [5] (source organism: Rhinovirus C) amounted to 0.5 µM.

Take RKAGVNQAK: the Kd is not below 20 µM in experiment [9] (setting [40]); not below 20 µM in experiment [23] (setting [40]); not below 20 µM in [10] (setting [36]); not below 20 µM in experiment [13] (setting [40]); 12.9 µM in experiment [34]; not below 20 µM in [14] (setting [40]). The Kd in experiment [6] (setting [40]) was not below 20 µM; in experiment [15] (setting [40]) it was not below 20 µM; in [16] (setting [40]) it was not below 20 µM; in experiment [18] (setting [40]), not below 20 µM; in [19] (setting [36]), 0.224 µM; in experiment [20] (setting [40]) it was not below 20 µM. Besides, the dissociation constant Kd in [21] (setting [40]), in experiment [22] (setting [40]) and in [35] was not below 20 µM throughout.

For the sequence QYDVPMVSF, the results for the dissociation constant (Kd) in experiment [25] (source organism: Mycobacterium tuberculosis) and in [8] (source organism: Mycobacterium tuberculosis H37Rv) were 0.0184 µM and not below 20 µM, respectively.
